Test results from the DeepSol protein solubility set.

experiment: soluble on expression in E. coli; label from the status in PepcDB or PDB records

| Sequence | soluble on expression in E. coli |
| --- | --- |
| MAINLELPRKLQAIIVKTHQGAAEMMRPIARKYDLKEHAYPVELDTLINLFEGAAESFNFAGAHSLRDEDEGKDENHNGANMAAVVQTMEASWGDVAMMLSLPYQGLGNAAISAVATDEQLERLGKVWAAMAITEPEFGSDSAAVSTTATLDGDEYVINGEKIFVTAGSRATHIVVWATLDKSLGRPAIKSFIVPREHPGVTVERLEHKLGIKGSDTAVIRFDNARIPKGNLLGNPEIEVGKGFAGVMETFDNTRPIVAAMAVGIGRAALEEIRSVLTGAGVEISYDKPSHTQSAAAAEFLRMEADWEASYLLSLRAAWQADNNIPNSKEASMSKAKAGRMASDVTCKTVELAGTTGYSEQSLLEKWARDSKILDIFEGTQQIQQLVVARRLLGLSSSELK | not soluble |
| MEKNWYVVHTYSGYENKVKANLEKRVESMGMQDKIFRVVVPEEEETDIKNGKKKVVKKKVFPGYVLVEIVMTDDSWYVVRNTPGVTGFVGSAGSGSKPTPLLPGEAETILKRMGMDERKTDIDFELKETVKVIDGPFANFTGSIEEIDYDKSKVKVFVNMFGRETPVELEFTQIDKL | soluble |
| MGHHHHHHSHMTWKGGGGWMAAVTHGPGITWGSLLPSAVRQGEQKCKNTDVYFSKLGGGGVPPDSFQRADCGGPTVYPTPARESLSFGTPGFPELRGKLILHVSIAVVVFLFGPGRAGEGPSRLQEASRVSWTLLCRPQAALQTPVRWDDFRRSQPGTARPSAWEPVQGAVS | soluble |
| MLFNFREKLNSRKFLVTAEVSPPKGTRFSASLEDASQLKGIADALNVTDNQCSIMHMSSLAFSKLLLDEGHEPIMQLTCRDRNRIGLQSDLLGAYALGIRNICLMTGDYPTCGDHPGSKPVYDVDSVQLIELVRKLDTGVDFAGNKLDGGTSFCAGAVSGIDPEKTMQLIKLQKKVKCGADFIQTQAVYDIGMFEEFMDAVNYLEVPVIAGLIPLKSLGMAEFMNKNISGIHVPEEIMLRMKDASSPMEEGLLIASETIKELTKLSRGIHVMPIGSHRNTARLLSLAGISQ | not soluble |
| MGSDKIHHHHHHMKRMKGIVYGGLLSVVFVMSGCSGSQKEGRDSKEIPVEIVKVAKTVPADTRNYVGTVEEVVSSSISFQVMGNVERVLVGEGQKVREGQLLAVLDKATLENAYNASAASLRQAEDAYARMRTLHENKSLPDMKWVEVESKLEQARSMERISRKNLEDRNLYAPFGGVIGKRMVEAGENVQPGQPVFSLLRIETVNVKIAVPENEVATLGDQAAMIKVAALGGQCFEGKVTEKGIVANPISHTYEAKIRLENPSGALLPGMVCDVRLSGEESVPAITLPNNAVLIANDGGRFVWKVVDGKAKATPVRTGDLTEQGLFILEGLNEGDIVVIGGYQKISEGMRVRAL | not soluble |
| RENFPGVSWDSLPDELLLGIFSCLCLPELLKVSGVCKRWYRLASDESLWQTLDLTGKNLHPDVTGRLLSQGVIAFRCPRSFMDQPLAEHFSPFRVQHMDLSNSVIEVSTLHGILSQCSKLQNLSLEGLRLSDPIVNTLAKNSNLVRLNLSGCSGFSEFALQTLLSSCSRLDELNLSWCFDFTEKHVQVAVAHVSETITQLNLSGYRKNLQKSDLSTLVRRCPNLVHLDLSDSVMLKNDCFQEFFQLNYLQHLSLSRCYDIIPETLLELGEIPTLKTLQVFGIVPDGTLQLLKEALPHLQINCSHFTTIARPTIGNKKNQEIWGIKCRLTLQKPSCL | soluble |
| MSLDHRKRESINDKNKMKVYTTVYAFQSLTQQIGGKYVDVQSIYPDGADLHSYEPTQKDMIDIAKSDLFVYSSHQLDPVAAKITNSMTNNSMKLALAEGLKQSDFIDSKGHDEDHEHHSHHEESNQDPHVWLDPVLNQKFAFMIKEKLIEKDPKHQAYYNKNYKMVNKDIVHIDQQLQSITKHSKRDKVVISHDSLGYLAHRYGFKQQGVKGMNDEEPSQKEILNIVKDIQHSHAPYVLYEQNITSKITDVIKKETDTKPLSFHNLAVLTKEEQNDDSISYQSLMKKNIYVLNRALNNEGHHHHHH | soluble |
| MIELKGISQHFRGAGGTDVHALRDVDLSIDKGEIFGIIGRSGAGKSTLVRVINLLNRPTSGTVTVAGQSLTALNADGLRQARRKIGMIFQHFNLLSSRTVYDNVALPLELAGTPRERIREIVLPLLELVGLDAHKDRYPAQISGGQKQRVGIARALASQPDVLLSDEATSALDPETTRSILDLLRKINRELGLTIVLITHQMEVIKQVCDRVAVLDAGRVVELGRVIDVFLKPRHDVTRALIGEVISQELPPSVLARVESRLVAARERGGRDHLFRLAFTGAGVDQPVLAQAIRNYGLDFNILHGHIDEIQGQAFGSLAILASGESADIDNAMHFLREQGVVVEEINHVVLEHHHHHH | not soluble |
| MAHHHHHHMRGVSAAEIGKFRELQNHWWNPDGPLRTLHFFNPLRVKYINDTCRNFSKRSSLLASSGITPGMRILDVGCGGGILSESLVRLGGNVLGIDMCEESIAVAQQRREQVLQDVASCTLQNGAASLEYRYASLNTIAVEEKQQFDLVVASEVIEHVDDAPRFLQDLCDATKPGGLLIISTMDKSIRAAISHIAVAEYLTALVRPGTHDWSKFVPPKDLSRCALQHQVRQVDLQYIVACPNILMSLSTRQMQLAFSLSKRFDTGHYFWSGLKVTAPA | not soluble |
| MANTLFDKIWDAHVVQKVEEGPTQLYIDRLYCHEVTSPQAFAGLRARGVKVFRPDHVYCMPDHNTPTHDQDKPIEDPVSKTQVDTLAKNAKDFGLAHFGMMDKRNGIIHVVGPERGLTLPGMTIVCGDSHTSTHGAMGAVAFGIGTSEVEMVLASQCILQSRPKT | not soluble |
| MNASSAPQQQQQQQQPQQGQAPQQQQQGPPQHQYQQQRPFHGRVQNHMRGSGPFGNSNGYGRYTAPRGDQQHHDSTPLSSVSSRRVPLPPTSQHRASSNFNTTPSSTNLYIRGLMPNTNDDLLREMCSKYGNIASTKAIMDKATNNCKGYGFVDFESPQAAAAAVDGLNTEGVQAQMAKLQQQEQDPTNLYIANLPLDFTEQMLETELNKFGMVISTRILRTPDNQSRGVGFARMDSKEKCEVIISALNGGRFDTMSKEGPALLIKQADTGRKSKVGSTSRHPSFQQFSSLGGPTAFLNGQHSMNNPEMLQRMQYPQVYQSYYGYHPAAVYQQHYDVNSLASQMGGMHVGGGNPQANGGGDMYGAHMYGQNAGGQGGQGVGQGGQGGNQQFYNPNNGRNKKYFQPMNPQ | not soluble |
| MGSDKIHHHHHHMTYARKPVADAGIGVGIADDPASLSVLHKPGCAAAIWRRHIPSQAKTWLEGLDPSQLPTGRQMVRPDGVRHAVRDFCKRADTPLGDDLDWLQNDMSMLAEMFAQVMSARVLRLRLDAISTNACSRFHIDAVTARLVCTYRGSGTQYGISTDGRAPRRVFQVATGAPILLRGTLWPEDPPSGVLHRSPPIAGTGETRLVMVLDPIFDPDNGP | not soluble |
| MQRSLQIFCIMSAIAMAYSQGSRDDNQSAKRNDFSRDIMSFGKRSGNTADLYDRRIMAFGKRQPSYDRDIMSFGKRSAPSDFSRDIMSFGKRSSSMYDRDIMSFGKRSPVDYDRPIMAFGKRAEDYERQIMAFGRRK | not soluble |
| MGSDKIHHHHHHMSKIVVLGAGPAGCSAGYHLAKSGHKVMLIDKDCFPRDKTCGDGISLGSVQALSTMGIYPDDIKRLASEYAQIDGFLLGVSNEISHLCPTELKGYCIPRFVFDNLLYQKAINAGCVARTQRISDIEGYHQELYSDFDYIIDARGVYAGEANAIAIRAYWSIKVADFPKIYLSKAQIYFDKAFGVNGYGWIFPVAVDSELVKLNVGVGVWLDEYQKNNTNIIRLFNEFVQRNQATKQLLSLVVSQQKPKAYPLATAKRANTVSYGKVFKIGDAANLTDPLTGEGIANAILSGLYVTQAINMSTSPELASENWQRLYQLYFEPDLDAGLQIKSFRKFSFINKLLIWLMNRNKPFAEQVTYTFAGLIPYKKLLP | not soluble |
| MSLGRKQQYGTLASIAAKLGISRTTVSNAYNRPEQLSAELRQRILDTAEDMGYLGPDPVARSLRTRRAGAIGVLLTEDLTYAFEDMASVDFLAGVAQAAGDTQLTLIPASPASSVDHVSAQQLVNNAAVDGVVIYSVAKGDPHIDAIRARGLPAVIADQPAREEGMPFIAPNNRKAIAPAAQALIDAGHRKIGILSIRLDRANNDGEVTRERLENAQYQVQRDRVRGAMEVFIEAGIDPGTVPIMECWINNRQHNFEVAKELLETHPDLTAVLCTVDALAFGVLEYLKSVGKSAPADLSLTGFDGTHMALARDLTTVIQPNKLKGFKAGETLLKMIDKEYVEPEVELETSFHPGSTVAEGHHHHHH | soluble |
